Data: paper PMC12723238, “Structural basis for T-cell intracellular antigen-1 amyloid fibril formation revealed by cryo-electron microscopy” (PNAS Nexus, 2025)
Positions count from the first letter of the chain named. Names may count otherwise.

B1: full-length human TIA-1 WT (natural protein, UniProt P31483 1-386, looked up)
chain: MEDEMPKTLYVGNLSRDVTEALILQLFSQIGPCKNCKMIMDTAGNDPYCFVEFHEHRHAAAALAAMNGRKIMGKEVKVNWATTPSSQKKDTSSSTVVSTQRSQDHFHVFVGDLSPEITTEDIKAAFAPFGRISDARVVKDMATGKSKGYGFVSFFNKWDAENAIQQMGGQWLGGRQIRTNWATRKPPAPKSTYESNTKQLSYDEVVNQSSPSNCTVYCGGVTSGLTEQLMRQTFSPFGQIMEIRVFPDKGYSFVRFNSHESAAHAIVSVNGTTIEGHVVKCYWGKETLDMINPVQQQNQIGYPQPYGQWGQWYGNAQQIGQYMPNGWQVPAYGMYGQAWNQQGFNQTQSSAPWMGPNYGVQPPQGQNGSMLPNQPSGYRVAGYETQ
notes: T-cell intracellular antigen-1 (TIA-1), human, full length, 386 residues (three RRMs followed by the PLD); also called full-length TIA-1; FL; source: recombinant
B2: full-length human TIA-1 A381T (natural protein, UniProt P31483 1-386, looked up)
chain: B1 chain with A381T
notes: TIA-1, human, full length, 386 residues, with the disease-associated missense mutation A381T; source: recombinant
B3: full-length human TIA-1 P362L (natural protein, UniProt P31483 1-386, looked up)
chain: B1 chain with P362L
notes: TIA-1, human, full length, 386 residues, with the disease-associated missense mutation P362L; source: recombinant
B4: full-length human TIA-1 G355R (natural protein, UniProt P31483 1-386, looked up)
chain: B1 chain with G355R
notes: TIA-1, human, full length, 386 residues, with the missense mutation G355R (found in genetic research on ALS/FTD); source: recombinant
B5: full-length human TIA-1 E384K (natural protein, UniProt P31483 1-386, looked up)
chain: B1 chain with E384K
notes: TIA-1, human, full length, 386 residues, with the disease-associated missense mutation E384K; source: recombinant
B6: synthesized peptide of the 25-residue TIA-1 fibril core (TFC peptide), residues 336-360 (peptide, UniProt P31483 336-360, looked up)
peptide: GQAWNQQGFNQTQSSAPWMGPNYGV
notes: TIA-1, human, fibril core region, residues 336-360 (25 residues); also called TFC peptide fibrils; TFC fibrils; source: synthetic peptide
B7: human wild-type TIA-1 short prion-like domain (sPLD), residues 320-386 (domain or fragment, UniProt P31483 320-386, looked up)
chain: GQYMPNGWQVPAYGMYGQAWNQQGFNQTQSSAPWMGPNYGVQPPQGQNGSMLPNQPSGYRVAGYETQ
notes: T-cell intracellular antigen-1 (TIA-1), human, 386 residues; short PLD, residues 320-386; Only residues 336-360 are resolved in the fibril structure; also called WT TIA-1 sPLD; TIA-1 sPLD
B8: human TIA-1 sPLD (residues 320-386) P362L (domain or fragment, UniProt P31483 320-386, looked up)
chain: B7 chain with P43L
notes: TIA-1, human, short PLD, residues 320-386, with the disease-associated missense mutation P362L
B9: human TIA-1 sPLD (residues 320-386) Q346L (domain or fragment, UniProt P31483 320-386, looked up)
chain: B7 chain with Q27L
notes: TIA-1, human, short PLD, residues 320-386, with Q346L
B10: human TIA-1 sPLD (residues 320-386) W353A (domain or fragment, UniProt P31483 320-386, looked up)
chain: B7 chain with W34A
notes: TIA-1, human, short PLD, residues 320-386, with W353A
B11: human TIA-1 sPLD (residues 320-386) E384K (domain or fragment, UniProt P31483 320-386, looked up)
chain: B7 chain with E65K
notes: TIA-1, human, short PLD, residues 320-386, with the disease-associated missense mutation E384K
B12: human TIA-1 sPLD (residues 320-386) Q348L (domain or fragment, UniProt P31483 320-386, looked up)
chain: B7 chain with Q29L
notes: TIA-1, human, short PLD, residues 320-386, with Q348L
B13: human TIA-1 sPLD (residues 320-386) A381T (domain or fragment, UniProt P31483 320-386, looked up)
chain: B7 chain with A62T
notes: TIA-1, human, short PLD, residues 320-386, with the disease-associated missense mutation A381T
B14: human TIA-1 sPLD (residues 320-386) with the G355R missense mutation (domain or fragment, UniProt P31483 320-386, looked up)
chain: B7 chain with G36R
notes: TIA-1, human, short PLD, residues 320-386, with G355R (found in genetic research on ALS/FTD); Only residues 334-349 are resolved in the fibril structure; also called G355R TIA-1 sPLD; TIA-1 G355R fibrils
B15: human TIA-1 sPLD (residues 320-386) W339A (domain or fragment, UniProt P31483 320-386, looked up)
chain: B7 chain with W20A
notes: TIA-1, human, short PLD, residues 320-386, with W339A
B16: human TIA-1 sPLD (residues 320-386) M354A (domain or fragment, UniProt P31483 320-386, looked up)
chain: B7 chain with M35A
notes: TIA-1, human, short PLD, residues 320-386, with M354A
B17: human TIA-1 sPLD (residues 320-386) G343P (domain or fragment, UniProt P31483 320-386, looked up)
chain: B7 chain with G24P
notes: TIA-1, human, short PLD, residues 320-386, with G343P

Experiments:
[1] = biological target: the molecule itself; experiment: thioflavin T fluorescence + negative-stain TEM; fibril formation of recombinant full-length TIA-1 from phase-separated condensates, with single-stranded DNA TC5, physiological buffer, 30 °C, up to 3 days
[2] = biological target: the molecule itself; experiment: thioflavin T fluorescence + negative-stain TEM; fibril formation of the synthetic TFC peptide alone, 100 to 12.5 μM
[3] = biological target: the molecule itself; experiment: cryo-EM structure; twisted amyloid fibrils of TIA-1 sPLD; fibrils grown by adding sonicated seeds to a monomer solution in 0.1% trifluoroacetic acid; helical reconstruction, two protofilaments
[4] = biological target: the molecule itself; experiment: thioflavin T fluorescence + negative-stain TEM; fibril formation of TIA-1 sPLD from phase-separated condensates, without TC5, physiological buffer, 30 °C, 3 days

Row | Protein | binding result [4] | further results
1 | B1 | – | binding result [1]: binds
2 | B2 | – | binding result [1]: binds
3 | B3 | – | binding result [1]: binds
4 | B4 | – | binding result [1]: binds
5 | B5 | – | binding result [1]: binds
6 | B6 | – | binding result [2]: binds
7 | B7 | – | binding result [3]: binds
8 | B8 | binds | –
9 | B9 | binds | –
10 | B10 | binds | –
11 | B11 | binds | –
12 | B12 | binds | –
13 | B13 | binds | –
14 | B14 | – | binding result [3]: binds
15 | B15 | binds | –
16 | B16 | binds | –
17 | B17 | binds | –
